Measured values reported in PMC10384689.

Substrate: Oc1ccc(/C=C/c2cc(O)cc(O)c2)cc1
Assay: purified protein
Conditions: PBS pH 7.4, 30 °C, 10 min, 10 uM FAD, 1 mM NADH, 1 uM HpaB, 1 uM HpaC, apparent

B1: EcHpaBC (E. coli 4HPA3H; HpaB + HpaC) (Escherichia coli) (protein)
chain: MKPEDFRASTQRPFTGEEYLKSLQDGREIYIYGERVKDVTTHPAFRNAAASVAQLYDALHKPEMQDSLCWNTDTGSGGYTHKFFRVAKSADDLRHERDAIAEWSRLSYGWMGRTPDYKAAFGCALGGTPGFYGQFEQNARNWYTRIQETGLYFNHAIVNPPIDRHLPTDKVKDVYIKLEKETDAGIIVSGAKVVATNSALTHYNMIGFGSAQVMGENPDFALMFVAPMDADGVKLISRASYEMVAGATGSPYDYPLSSRFDENDAILVMDNVLIPWENVLLYRDFDRCRRWTMEGGFARMYPLQACVRLAVKLDFITALLKKSLECTGTLEFRGVQADLGEVVAWRNTFWALSDSMCSEATPWVNGAYLPDHAALQTYRVLAPMAYAKIKNIIERNVTSGLIYLPSSARDLNNPQIDQYLAKYVRGSNGMDHVQRIKILKLMWDAIGSEFGGRHELYEINYSGSQDEIRLQCLRQAQSSGNMDKMMAMVDRCLSEYDQNGWTVPHLHNNDDINMLDKLLK
Km: 670 ± 120 µM | kcat: 0.0135 s⁻¹ | kcat/Km: 20 M⁻¹ s⁻¹
